Data reported in article PMC7079959.

Target: T1, MS2 bacteriophage coat protein (bacteriophage MS2), P03612
T1 chain: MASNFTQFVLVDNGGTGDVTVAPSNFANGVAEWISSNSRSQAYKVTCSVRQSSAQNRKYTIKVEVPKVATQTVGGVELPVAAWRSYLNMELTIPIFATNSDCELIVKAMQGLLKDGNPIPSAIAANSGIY
Experiment: SEC
Conditions: remark: other sources report otherwise

B1: MS2 bacteriophage coat protein, P03612 1-130 (natural protein)
chain: T1 chain
stoichiometry N: 2
